The source of these data is paper PMC5575113 (2017).

For orientation: Kd means the concentration at which binding is half-saturated. Higher therefore signals lower affinity.

Assay [1] has as its target GroEL^SR (GroEL R452A/E461A/S463A/V464A) (E. coli, UniProt P0A6F5 1-548, R452A | E461A | S463A | V464A). Briefly: MST.
The next assay addresses GroEL (E. coli, UniProt P0A6F5 1-548). Briefly: MST.

B1: GroES^7 (other)
chain: MNIRPLHDRVIVKRKEVETKSAGGIVLTGSAAAKSTRGEVLAVGNGRILENGEVKPLDVKVGDIVIFNDGYGVKSEKIDNEEVLIMSESDILAIVEAMNIRPLHDRVIVKRKEVETKSAGGIVLTGSAAAKSTRGEVLAVGNGRILENGEVKPLDVKVGDIVIFNDGYGVKSEKIDNEEVLIMSESDILAIVEAMNIRPLHDRVIVKRKEVETKSAGGIVLTGSAAAKSTRGEVLAVGNGRILENGEVKPLDVKVGDIVIFNDGYGVKSEKIDNEEVLIMSESDILAIVEAMNIRPLHDRVIVKRKEVETKSAGGIVLTGSAAAKSTRGEVLAVGNGRILENGEVKPLDVKVGDIVIFNDGYGVKSEKIDNEEVLIMSESDILAIVEAMNIRPLHDRVIVKRKEVETKSAGGIVLTGSAAAKSTRGEVLAVGNGRILENGEVKPLDVKVGDIVIFNDGYGVKSEKIDNEEVLIMSESDILAIVEAMNIRPLHDRVIVKRKEVETKSAGGIVLTGSAAAKSTRGEVLAVGNGRILENGEVKPLDVKVGDIVIFNDGYGVKSEKIDNEEVLIMSESDILAIVEAMNIRPLHDRVIVKRKEVETKSAGGIVLTGSAAAKSTRGEVLAVGNGRILENGEVKPLDVKVGDIVIFNDGYGVKSEKIDNEEVLIMSESDILAIVEA
modifications: DyLight 650 NHS ester on amines (for MST)
B1: the values for the Kd (in assay [1]; in the assay with GroEL) were 4.54 nM and 3.05 nM, respectively.

B2: GroES^7I25A1,4 (other)
chain: MNIRPLHDRVIVKRKEVETKSAGGAVLTGSAAAKSTRGEVLAVGNGRILENGEVKPLDVKVGDIVIFNDGYGVKSEKIDNEEVLIMSESDILAIVEAMNIRPLHDRVIVKRKEVETKSAGGIVLTGSAAAKSTRGEVLAVGNGRILENGEVKPLDVKVGDIVIFNDGYGVKSEKIDNEEVLIMSESDILAIVEAMNIRPLHDRVIVKRKEVETKSAGGIVLTGSAAAKSTRGEVLAVGNGRILENGEVKPLDVKVGDIVIFNDGYGVKSEKIDNEEVLIMSESDILAIVEAMNIRPLHDRVIVKRKEVETKSAGGAVLTGSAAAKSTRGEVLAVGNGRILENGEVKPLDVKVGDIVIFNDGYGVKSEKIDNEEVLIMSESDILAIVEAMNIRPLHDRVIVKRKEVETKSAGGIVLTGSAAAKSTRGEVLAVGNGRILENGEVKPLDVKVGDIVIFNDGYGVKSEKIDNEEVLIMSESDILAIVEAMNIRPLHDRVIVKRKEVETKSAGGIVLTGSAAAKSTRGEVLAVGNGRILENGEVKPLDVKVGDIVIFNDGYGVKSEKIDNEEVLIMSESDILAIVEAMNIRPLHDRVIVKRKEVETKSAGGIVLTGSAAAKSTRGEVLAVGNGRILENGEVKPLDVKVGDIVIFNDGYGVKSEKIDNEEVLIMSESDILAIVEA
modifications: DyLight 650 NHS ester on amines (for MST)
In the case of B2, the Kd in assay [1] is 51.3 nM; in the assay with GroEL it was 8.99 nM.

B3: GroES^7I25D1,2 (other)
chain: MNIRPLHDRVIVKRKEVETKSAGGDVLTGSAAAKSTRGEVLAVGNGRILENGEVKPLDVKVGDIVIFNDGYGVKSEKIDNEEVLIMSESDILAIVEAMNIRPLHDRVIVKRKEVETKSAGGDVLTGSAAAKSTRGEVLAVGNGRILENGEVKPLDVKVGDIVIFNDGYGVKSEKIDNEEVLIMSESDILAIVEAMNIRPLHDRVIVKRKEVETKSAGGIVLTGSAAAKSTRGEVLAVGNGRILENGEVKPLDVKVGDIVIFNDGYGVKSEKIDNEEVLIMSESDILAIVEAMNIRPLHDRVIVKRKEVETKSAGGIVLTGSAAAKSTRGEVLAVGNGRILENGEVKPLDVKVGDIVIFNDGYGVKSEKIDNEEVLIMSESDILAIVEAMNIRPLHDRVIVKRKEVETKSAGGIVLTGSAAAKSTRGEVLAVGNGRILENGEVKPLDVKVGDIVIFNDGYGVKSEKIDNEEVLIMSESDILAIVEAMNIRPLHDRVIVKRKEVETKSAGGIVLTGSAAAKSTRGEVLAVGNGRILENGEVKPLDVKVGDIVIFNDGYGVKSEKIDNEEVLIMSESDILAIVEAMNIRPLHDRVIVKRKEVETKSAGGIVLTGSAAAKSTRGEVLAVGNGRILENGEVKPLDVKVGDIVIFNDGYGVKSEKIDNEEVLIMSESDILAIVEA
modifications: DyLight 650 NHS ester on amines (for MST)
B3: the Kd in assay [1] came out at 38.7 nM; in the assay with GroEL, 9.24 nM.
